Reference: patent US20210196823A1, “Methods of Treating Metabolic Disease” (Pfizer Inc., priority 2018, published 2021)
Where a chain is given by its changes, count along the chain named.

Legend:
[1] = tested on: biotinylated monoFC-muErfe; assay: FRET assay: BMPs disrupting binding of cryptate-labelled anti-ERFE antibody 15.1 to biotinylated monoFC-muErfe; design: species or system murine; settings: competing antigen 250 nM to 0.39 nM, Ab 15.1 15 nM, 3 hours room temperature
Method: (a) Investigation of the ability of BMPs to disrupt binding of cryptate-labelled anti-ERFE antibody to biotinylated murine ERFE: FRET assay was used to determine the ability of BMPs to disrupt binding between ERFE and a neutralising anti-ERFE antibody (Ab 15.1). The assay setup comprised streptavidin XL665 (cisbio assays) at a constant concentration of 1:1000 to be 50 ng per well, biotinylated monoFC-muErfe (9 μM) i.e. a monomeric FC murine ERFE fusion, cryptate labelled anti-ERFE antibody (Ab 15.1) at 15 nM. Each reaction well contained a total volume of 20 μl comprising: 5 μl streptavidin XL665, 5 μl Biotinylated monoFC-muErfe, 5 μl cryptate labelled anti-ERFE antibody 15.1, 5 μl competing antigen as a titration from 250 nM to 0.39 nM, all antigens at each concentration were assayed in duplicate. Reactions were left for 3 hours at room temperature and then […] at 665 nm and […] was read on the Envision. […] The assay was also conducted using a non-neutralising anti-ERFE antibody as a control.

[2] = target: T1, BMP4 (UniProt P12644 293-408); assay: SPR (Biacore)
T1 chain: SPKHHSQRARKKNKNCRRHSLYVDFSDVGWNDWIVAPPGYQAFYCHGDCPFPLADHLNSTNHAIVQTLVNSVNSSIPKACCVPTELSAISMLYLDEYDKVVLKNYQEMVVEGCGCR

[3] = target: T2, BMP6 (UniProt P22004 382-513); assay: SPR (Biacore)
T2 chain: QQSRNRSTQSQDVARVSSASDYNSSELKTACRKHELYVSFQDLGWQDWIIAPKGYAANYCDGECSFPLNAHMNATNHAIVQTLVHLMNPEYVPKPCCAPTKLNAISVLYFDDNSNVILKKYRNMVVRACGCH

[4] = target: T3, BMP2 (UniProt P12643 283-396); assay: SPR (Biacore)
T3 chain: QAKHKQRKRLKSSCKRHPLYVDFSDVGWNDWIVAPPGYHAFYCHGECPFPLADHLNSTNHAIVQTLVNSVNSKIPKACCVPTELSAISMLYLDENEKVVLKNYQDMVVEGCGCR

[5] = tested on: Huh7 cells; assay: Gene expression microarray of Huh7 cells treated with ERFE; type: cell-based; settings: Huh7, ERFE 10 μg/ml, 24 h
Method: (b) Gene expression microarray: Microarray analysis of Huh7 cells treated with mouse or human erythroferrone was carried out to test the activity of erythroferrone on the BMP/SMAD signalling pathway. Generally cell treatments were carried out according to the following protocol: Huh7 and HepG2 were cultured in Dulbecco's Modified Eagle's Medium—High Glucose (Sigma), supplemented with 10% Fetal Bovine Serum (Sigma), 1% Penicillin-Streptomycin (Sigma) and 1% L-Glutamine (Sigma), unless otherwise indicated. Cells were plated 24 h before treatments in 24-well (gene expression analysis) or 12-well (protein analysis) cell culture plates. At the time of treatment, cells were washed with PBS and fresh media was added.
For the purposes of gene expression microarray analysis RNA was isolated from the Huh7 cells using RNeasy Plus kit (Qiagen), this was followed by RNA quantification and quality assessment using a 2100 Bioanalyzer (Agilent). RNA was converted into biotin labelled cRNA for hybridization and gene expression analysed using the Human HT12v4.0 Expression Beadchip (Illumina) and the Illuminas's iScan Scanner. Raw data was normalised using the lumi package (Bioconductor) and compared using LIMMA (Bioconductor). Statistical significance was set at p<0.05.

[6] = tested on: HAMP-nanoluciferase fusion in HepG2 hepatoma cells; assay: hepcidin transcriptional fusion reporter assay (nano-luc / nano-luciferase assay); type: cell-based; settings: for hepcidin expression (hepcidin-nanoluciferase fusion expression): NanoLuc cells, serially diluted BMP, 24 h
Method: The was measured in-vitro using as follows: A hepcidin transcriptional fusion reporter assay (nano-luc or nano-luciferase assay) was developed to assess the effect of BMPs on hepcidin production in-vitro. A nanoluciferase reporter was inserted at the end of the coding sequence of the endogenous HAMP gene, in HepG2 hepatoma cells, creating a HAMP-nanoluciferase fusion. CRISPR-Cas9 was used to edit the cells with this knock-in reporter construct. A bovine Growth Hormone poly A was included after the nanoLuc to ensure proper mRNA processing. A Puromycin-TK expression cassette was also included 3′ of the nanoluc reporter to enrich for properly targeted clones. […] Approximately 20,000 cells (cells split with trypsin/EDTA) were suspended in 200 uL of complete media (DMEM+10% serum+Na pyruvate) and were distributed into each well of 96-well plates and incubated for 24 hours at 37 C. Media was then aspirated and the cells treated in 100 uL complete media for 24 h at 37 C in the presence of the selected BMP which was serial diluted (in duplicates), controls of fresh media alone were used for a baseline signal (in duplicate). Following the incubation 90 uL of supernatant was transferred to a white wall 96 well plate and equilibrated at RT, 90 uL of RT NanoLuc reagent was added/well (for 1 plate, 10 mL diluting reagent+200 uL NanoLuc substrate—from Nano-Glo Luciferase Assay System, Promega, ref cat #N1150) and mixed 2-3 min at room temperature. Plates were read on Envision with Lum700 program following the manufacturer's instructions.

[7] = tested on: SMAD1/5/8 phosphorylation in Huh7 cells; assay: Western blot of SMAD1/5/8 phosphorylation in Huh7 cells; type: cell-based; settings: Huh7, BMP6 stimulation, 30 min
Method: (d) ERFE effects on BMP/SMAD signalling measured by SMAD 1/5/8 phosphorylation: To confirm the suppression of BMP/SMAD signalling, we analysed phosphorylation of SMAD1/5/8, required to transduce the signal leading to HAMP upregulation. Analysis was carried out by Western blot according to the following methodology: Cells were lysed at 4° C. using RIPA buffer (Thermo Scientific) containing protease/phosphatase inhibitor (Cell Signalling). Lysates were denatured at 95° C. and separated on a 10% SDS polyacrylamide gel (Bio-Rad), following the manufacturer's instruction. Protein sizes were estimated by using the Novex Sharp Pre-Stained Protein Ladder (life technologies). Protein was transferred to a nitrocellulose membrane, then blocked with milk/TBS for 1 h. Antibodies used were anti-P-SMAD 1/5 (S463s/465)/9(S465/467) (Cell signalling 13820S 1:500), anti-Smad1 (Cell Signalling 6944S 1:500), anti-β-actin-peroxidase (Sigma A3854 1:10 000), and Anti-rabbit IgG HRP conjugated (RnD systems HAP008 1:5000). […] In this case Huh7 cells were treated with mouse ERFE (10 μg/ml) or BMP6 and LDN, a small molecule inhibitor of BMPs, (100 nM), alone or in combination, for 30 min and pSMAD/SMAD ratios values were calculated by densitometry. Erythroferrone caused a decrease in SMAD phosphorylation relative to non-treated cells (FIG. 3D).

Chain of biotinylated monoFC-muErfe (Q6PGN1 25-340): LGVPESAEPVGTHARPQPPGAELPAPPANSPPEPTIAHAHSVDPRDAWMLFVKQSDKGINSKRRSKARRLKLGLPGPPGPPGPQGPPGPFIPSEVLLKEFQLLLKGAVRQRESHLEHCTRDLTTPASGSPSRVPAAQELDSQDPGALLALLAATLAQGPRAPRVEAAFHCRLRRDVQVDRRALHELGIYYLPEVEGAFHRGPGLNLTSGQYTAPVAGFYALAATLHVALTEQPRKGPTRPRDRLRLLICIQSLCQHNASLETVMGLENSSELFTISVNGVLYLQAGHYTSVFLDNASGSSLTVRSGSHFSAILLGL

Molecule: BMP4: bone morphogenetic protein 4 (R&D systems)
- competition with cryptate labelled anti-ERFE antibody for binding to biotinylated monoFC-muErfe [1]: did not compete effectively

B1: ERFE A4-biotin (ligand)
chain: AAGLGSPEPGAPSRSAAAAEPPPGNELPRGPGESRAGPAARPPEPTAERAHSVDPRDAWMLFVRQSDKGVNGKKRSRGKAKKLKFGLPGPPGPPGPQGPPGPIIPPEALLKEFQLLLKGAVRQRERAEPEPCTCGPAGPVAASLAPVSATAGEDDDDVVGDVLALLAAPLAPGPRAPRVEAAFLCRLRRDALVERRALHELGVYYLPDAEGAFRRGPGLNLTSGQYRAPVAGFYALAATLHVALGEPPRRGPPRPRDHLRLLICIQSRCQRNASLEAIMGLESSSELFTISVNGVLYLQMGQWTSVFLDNASGCSLTVRSGSHFSAVLLGV
modifications: biotin (site not stated)
- Kd [2]: 41.1 nM
- Kd [3]: 1.17 nM
- Kd [4]: 16.1 nM

B2: human ERFE: recombinant human erythroferrone, SEQ ID NO: 1 (protein, listed as Homo sapiens)
chain: MAPARRPAGARLLLVYAGLLAAAAAGLGSPEPGAPSRSRARREPPPGNELPRGPGESRAGPAARPPEPTAERAHSVDPRDAWMLFVRQSDKGVNGKKRSRGKAKKLKFGLPGPPGPPGPQGPPGPIIPPEALLKEFQLLLKGAVRQRERAEPEPCTCGPAGPVAASLAPVSATAGEDDDDVVGDVLALLAAPLAPGPRAPRVEAAFLCRLRRDALVERRALHELGVYYLPDAEGAFRRGPGLNLTSGQYRAPVAGFYALAATLHVALGEPPRRGPPRPRDHLRLLICIQSRCQRNASLEAIMGLESSSELFTISVNGVLYLQMGQWTSVFLDNASGCSLTVRSGSHFSAVLLGV
- target genes of the JAK/STAT3 pathway [5]: No changes
- number of suppressed genes ([5]; 5 are BMP/SMAD targets ID1, ID2, ID3, SMAD6, HAMP): 12

B3: BMP6: bone morphogenetic protein 6 (R&D systems) (protein)
chain: T2 chain
- competition with cryptate labelled anti-ERFE antibody for binding to biotinylated monoFC-muErfe [1]: measurable competition
- hepcidin expression (hepcidin-nanoluciferase fusion expression) [6]: dose-dependent increase
- SMAD phosphorylation [7]: increase

B4: monoFC-huErfe: monomeric Fc fusion of human ERFE; FIG. 3L legend names the A4 mutant (protein)
chain: B1 chain with A16R, A18R, A19R
modifications: left off: a dimerising Fc or GST
- suppression of hepcidin production (NanoLuc) ([6]; two fold dilutions from 600 nM, 24 hours): dose dependent

B5: BMP5: bone morphogenetic protein 5 (R&D systems) (protein)
chain: AANKRKNQNRNKSSSHQDSSRMSSVGDYNTSEQKQACKKHELYVSFRDLGWQDWIIAPEGYAAFYCDGECSFPLNAHMNATNHAIVQTLVHLMFPDHVPKPCCAPTKLNAISVLYFDDSSNVILKKYRNMVVRSCGCH
- competition with cryptate labelled anti-ERFE antibody for binding to biotinylated monoFC-muErfe [1]: measurable competition

B6: BMP7: bone morphogenetic protein 7 (R&D systems) (protein)
chain: STGSKQRSQNRSKTPKNQEALRMANVAENSSSDQRQACKKHELYVSFRDLGWQDWIIAPEGYAAYYCEGECAFPLNSYMNATNHAIVQTLVHFINPETVPKPCCAPTQLNAISVLYFDDSSNVILKKYRNMVVRACGCH
- competition with cryptate labelled anti-ERFE antibody for binding to biotinylated monoFC-muErfe [1]: measurable competition

B7: BMP9: bone morphogenetic protein 9 (R&D systems) (protein)
chain: SAGAGSHCQKTSLRVNFEDIGWDSWIIAPKEYEAYECKGGCFFPLADDVTPTKHAIVQTLVHLKFPTKVGKACCVPTKLSPISVLYKDDMGVPTLKYHYEGMSVAECGCR
- hepcidin expression (hepcidin-nanoluciferase fusion expression) [6]: dose-dependent increase
